The test system of the series is Saccharomyces cerevisiae. In words: protein stability index of tFT-peptide fusion (C-terminal peptide) (PSI (0-1 scale)); higher = more stable (slower turnover). Particulars: temperature: 30 C. The method, then: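 MPS profiling in S. cerevisiae of the yeast C-terminome library: the last 12 aa of each annotated ORF are fused to the C-terminus of a sfGFP-mCherry timer, after a GGGS linker. Cells are FACS-sorted into 8 mCherry/sfGFP bins and deep-sequenced. PSI runs from 0 (unstable) to 1 (stable); wild type and das1Δ backgrounds, two technical replicates each.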

[1] abbreviates: genetic background: das1 deletion.

± gives the standard deviation of the averaged measurements.

Consider “LLLSFYFDFYPF [YEL050W-A C-terminal 12 aa]”, for which the protein stability index is, setting by setting: under setting [1], 0.515 ± 0.009; (genetic background: wild type) 0.6535 ± 0.0032.

In the case of LLPMAFGPSHLN [CDD1 C-terminal 12 aa], the protein stability index was found to be 0.743 ± 0.032 under setting [1] and 0.76 ± 0.045 (genetic background: wild type).

As to “LLSGEPLAKKKE [HMLALPHA2 C-terminal 12 aa]”, the protein stability index by setting is: under setting [1], 0.697 ± 0.0074; (genetic background: wild type) 0.744 ± 0.036.

Consider LLSVHMYSSSLL [YNL019C C-terminal 12 aa], for which the protein stability index reads like this: under setting [1], 0.687 ± 0.011; (genetic background: wild type) 0.671 ± 0.018.

Consider LMETSKDVDSHP [DMA2 C-terminal 12 aa], for which the protein stability index reads like this: under setting [1], 0.7 ± 0.01; (genetic background: wild type) 0.729 ± 0.0096.

Take LPEAPSSQPLQA [TIM17 C-terminal 12 aa]: the protein stability index came out at 0.674 ± 0.013 under setting [1] and 0.696 ± 0.03 (genetic background: wild type).

Turning to LPNVPTVAYVII [YNL319W C-terminal 12 aa], the protein stability index runs as follows: under setting [1], 0.6334 ± 0.0054; (genetic background: wild type) 0.664 ± 0.024.

With LPPEGKPKGKDD [TAZ1 C-terminal 12 aa], the protein stability index was 0.701 ± 0.018 under setting [1] and 0.661 ± 0.018 (genetic background: wild type).

With LQARLNTLKKQT [DID4 C-terminal 12 aa], the protein stability index by setting is: under setting [1], 0.681 ± 0.049; (genetic background: wild type) 0.604 ± 0.0095.

With LQPLIDLDIDNK [ICS2 C-terminal 12 aa], the protein stability index under setting [1] was 0.699 ± 0.026 and the protein stability index (genetic background: wild type) stood at 0.702 ± 0.041.

LQRLCKKYPEIY [RFA3 C-terminal 12 aa]: the protein stability index worked out at 0.709 ± 0.015 under setting [1] and 0.703 ± 0.02 (genetic background: wild type).

In the case of LRIYKNPPLDGP [YJL163C C-terminal 12 aa], the protein stability index runs as follows: under setting [1], 0.729 ± 0.022; (genetic background: wild type) 0.745 ± 0.017.

With LRRYEEDLFCTF [IES2 C-terminal 12 aa], the protein stability index by setting is: under setting [1], 0.759 ± 0.029; (genetic background: wild type) 0.7425 ± 0.0059.

Consider LRWKKRNGIASK [NOP16 C-terminal 12 aa], for which the protein stability index runs as follows: under setting [1], 0.636 ± 0.017; (genetic background: wild type) 0.663 ± 0.028.

As to LSHKGIKHLNIT [YGR266W C-terminal 12 aa], the protein stability index is, setting by setting: under setting [1], 0.702 ± 0.022; (genetic background: wild type) 0.68 ± 0.057.

As for LSKRRTRLINFN [PXL1 C-terminal 12 aa], the protein stability index reads like this: under setting [1], 0.727 ± 0.013; (genetic background: wild type) 0.538 ± 0.047.

Consider LSLRTKNTENKE [YGL159W C-terminal 12 aa], for which the protein stability index by setting is: under setting [1], 0.716 ± 0.038; (genetic background: wild type) 0.688 ± 0.033.

Regarding LSQRVKKEYAAN [COQ21 C-terminal 12 aa], the protein stability index worked out at 0.708 ± 0.024 under setting [1] and 0.685 ± 0.0074 (genetic background: wild type).

As to LSSSDDNYGSLA [SNA2 C-terminal 12 aa], the protein stability index stood at 0.702 ± 0.013 under setting [1] and 0.669 ± 0.034 (genetic background: wild type).

On to LTARRKNRQQWE [COX23 C-terminal 12 aa], for which the protein stability index reads like this: under setting [1], 0.704 ± 0.022; (genetic background: wild type) 0.692 ± 0.024.

In the case of LTINDLDVTFVI [YCR041W C-terminal 12 aa], the protein stability index reads like this: under setting [1], 0.721 ± 0.022; (genetic background: wild type) 0.71 ± 0.0024.

Turning to LTTSVLCCVVFT [CNE1 C-terminal 12 aa], the protein stability index stood at 0.348 ± 0.0076 under setting [1] and 0.364 ± 0.0028 (genetic background: wild type).

For the sequence “LTYNTSCQRRQK [YOR161W-A C-terminal 12 aa]”, the protein stability index is 0.715 ± 0.0089 under setting [1] and 0.717 ± 0.072 (genetic background: wild type).

LVSYFLKVQMNL [YNL095C C-terminal 12 aa] came in with a protein stability index under setting [1] of 0.514 ± 0.02 and a protein stability index (genetic background: wild type) of 0.491 ± 0.011.

On to LYKPSVWDLFEY [FZF1 C-terminal 12 aa], for which the protein stability index by setting is: under setting [1], 0.716 ± 0.016; (genetic background: wild type) 0.6818 ± 0.0023.

Take LYVCIYISAFIK [FYV12 C-terminal 12 aa]: the protein stability index is, setting by setting: under setting [1], 0.137 ± 0.019; (genetic background: wild type) 0.143 ± 0.0053.

With MAHRIKNFRDEL [SIL1 C-terminal 12 aa], the protein stability index is, setting by setting: under setting [1], 0.712 ± 0.0079; (genetic background: wild type) 0.672 ± 0.032.

Regarding MAINDCFDQAQG [YER076C C-terminal 12 aa], the protein stability index turned out to be 0.695 ± 0.0062 under setting [1] and 0.693 ± 0.012 (genetic background: wild type).

Regarding MASVVKGNATSA [PHO90 C-terminal 12 aa], the protein stability index reads like this: under setting [1], 0.69425 ± 0.00061; (genetic background: wild type) 0.688 ± 0.027.

On to MDLKRFKGEFSF [PEX5 C-terminal 12 aa], for which the protein stability index was found to be 0.69824 ± 0.00026 under setting [1] and 0.685 ± 0.036 (genetic background: wild type).

Take MDSRVAHGNILI [SRB5 C-terminal 12 aa]: the protein stability index reads like this: under setting [1], 0.70004 ± 0.00046; (genetic background: wild type) 0.688 ± 0.092.

On to MGCIKGTVKTKY [ABZ2 C-terminal 12 aa], for which the protein stability index stood at 0.668 ± 0.039 under setting [1] and 0.756 ± 0.14 (genetic background: wild type).

MIENEKQNPAKQ [OSH6 C-terminal 12 aa]: the protein stability index is 0.693 ± 0.0075 under setting [1] and 0.692 ± 0.028 (genetic background: wild type).

Regarding MMGFSNFATSKK [SNU23 C-terminal 12 aa], the protein stability index was 0.728 ± 0.011 under setting [1] and 0.683 ± 0.035 (genetic background: wild type).

For the sequence MNKKHHKPIPFD [RRD2 C-terminal 12 aa], the protein stability index is, setting by setting: under setting [1], 0.762 ± 0.027; (genetic background: wild type) 0.697 ± 0.0073.

Take MPSATTKNPYAQ [CAF120 C-terminal 12 aa]: the protein stability index was 0.709 ± 0.042 under setting [1] and 0.686 ± 0.034 (genetic background: wild type).

With MRLLGLTPVERM [YDR341C C-terminal 12 aa], the protein stability index is, setting by setting: under setting [1], 0.672 ± 0.00072; (genetic background: wild type) 0.696 ± 0.034.

For the sequence MTRLKKLLTLEW [ZIP2 C-terminal 12 aa], the protein stability index stood at 0.817 ± 0.047 under setting [1] and 0.733 ± 0.046 (genetic background: wild type).

With MVSSLRNANHIF [BCS1 C-terminal 12 aa], the protein stability index reads like this: under setting [1], 0.712 ± 0.028; (genetic background: wild type) 0.681 ± 0.025.

Consider NAKSKVFSIENN [LSG1 C-terminal 12 aa], for which the protein stability index was 0.681 ± 0.039 under setting [1] and 0.678 ± 0.015 (genetic background: wild type).

NCEPIATTFRAN [MGL2 C-terminal 12 aa]: the protein stability index turned out to be 0.7086 ± 0.00098 under setting [1] and 0.681 ± 0.018 (genetic background: wild type).

As to NDDSKDEDDIIP [MAL33 C-terminal 12 aa], the protein stability index runs as follows: under setting [1], 0.6831 ± 0.0019; (genetic background: wild type) 0.731 ± 0.056.

For NDTEHVTLHTNT [YDL228C C-terminal 12 aa], the protein stability index runs as follows: under setting [1], 0.711 ± 0.0095; (genetic background: wild type) 0.688 ± 0.031.

NEASKATGASVH [YOP1 C-terminal 12 aa]: the protein stability index worked out at 0.7 ± 0.0098 under setting [1] and 0.737 ± 0.094 (genetic background: wild type).

Consider NGPVNNNAHLVA [FAT3 C-terminal 12 aa], for which the protein stability index turned out to be 0.689 ± 0.0098 under setting [1] and 0.709 ± 0.049 (genetic background: wild type).

Take NGSDNVTPGGRL [STE50 C-terminal 12 aa]: the protein stability index by setting is: under setting [1], 0.708 ± 0.014; (genetic background: wild type) 0.685 ± 0.022.

For the sequence NIIIIILYVYIH [MOR1 C-terminal 12 aa], the protein stability index by setting is: under setting [1], 0.227 ± 0.0036; (genetic background: wild type) 0.228 ± 0.025.

NISNGSSTQDMK [HPR1 C-terminal 12 aa]: the protein stability index came to 0.703 ± 0.029 under setting [1] and 0.704 ± 0.065 (genetic background: wild type).

As for NKGSQLLAKLLK [PUF6 C-terminal 12 aa], the protein stability index came to 0.7305 ± 0.0034 under setting [1] and 0.674 ± 0.036 (genetic background: wild type).

NKHDLHLRPETY [YAR010C C-terminal 12 aa]: the protein stability index came out at 0.658 ± 0.018 under setting [1] and 0.678 ± 0.021 (genetic background: wild type).
